# Data published in patent publication US20240158497A1.
# Where “and” joins values, the source holds several entries; their conditions need not be identical. Equal values may be shown once.
# Assays:
# [1] = target: extracellular domain of human LEPR, GPI-anchored, on HEK293/hLEPR-GPI cells (human) (UniProt P48357); experiment: FACS, secondary antibody alone on HEK293/hLEPR-GPI cells, 1 µM Leptin
# [2] = target: full length human GP130 (L2V natural variant) on HEK293/Stat3-luc/gp130-2X Sort cells (human) (UniProt P40189); experiment: FACS, secondary antibody alone on HEK293/gp130 2X Sort cells
# [3] = target: extracellular domain of human LEPR, GPI-anchored, on HEK293/hLEPR-GPI cells (human) (UniProt P48357); experiment: FACS, secondary antibody alone on HEK293/hLEPR-GPI cells, no Leptin
# [4] = target: extracellular domain of human LEPR, GPI-anchored, on HEK293/hLEPR-GPI cells (human) (UniProt P48357); experiment: FACS, 200 nM antibody on HEK293/hLEPR-GPI cells, no Leptin
# [5] = target: full length human GP130 (L2V natural variant) on HEK293/Stat3-luc/gp130-2X Sort cells (human) (UniProt P40189); experiment: FACS, 200 nM antibody on HEK293/gp130 2X Sort cells
# [6] = target: mutant human LEPR (Y1141F) on HEK293.STAT3.Luc.GP130.hLEPR (Y1141F) cells (human) (UniProt P48357); experiment: cell-based or functional assay
# mutant human LEPR (Y1141F) on HEK293.STAT3.Luc.GP130.hLEPR (Y1141F) cells (human), sequence (P48357 22-1165 Y1141F): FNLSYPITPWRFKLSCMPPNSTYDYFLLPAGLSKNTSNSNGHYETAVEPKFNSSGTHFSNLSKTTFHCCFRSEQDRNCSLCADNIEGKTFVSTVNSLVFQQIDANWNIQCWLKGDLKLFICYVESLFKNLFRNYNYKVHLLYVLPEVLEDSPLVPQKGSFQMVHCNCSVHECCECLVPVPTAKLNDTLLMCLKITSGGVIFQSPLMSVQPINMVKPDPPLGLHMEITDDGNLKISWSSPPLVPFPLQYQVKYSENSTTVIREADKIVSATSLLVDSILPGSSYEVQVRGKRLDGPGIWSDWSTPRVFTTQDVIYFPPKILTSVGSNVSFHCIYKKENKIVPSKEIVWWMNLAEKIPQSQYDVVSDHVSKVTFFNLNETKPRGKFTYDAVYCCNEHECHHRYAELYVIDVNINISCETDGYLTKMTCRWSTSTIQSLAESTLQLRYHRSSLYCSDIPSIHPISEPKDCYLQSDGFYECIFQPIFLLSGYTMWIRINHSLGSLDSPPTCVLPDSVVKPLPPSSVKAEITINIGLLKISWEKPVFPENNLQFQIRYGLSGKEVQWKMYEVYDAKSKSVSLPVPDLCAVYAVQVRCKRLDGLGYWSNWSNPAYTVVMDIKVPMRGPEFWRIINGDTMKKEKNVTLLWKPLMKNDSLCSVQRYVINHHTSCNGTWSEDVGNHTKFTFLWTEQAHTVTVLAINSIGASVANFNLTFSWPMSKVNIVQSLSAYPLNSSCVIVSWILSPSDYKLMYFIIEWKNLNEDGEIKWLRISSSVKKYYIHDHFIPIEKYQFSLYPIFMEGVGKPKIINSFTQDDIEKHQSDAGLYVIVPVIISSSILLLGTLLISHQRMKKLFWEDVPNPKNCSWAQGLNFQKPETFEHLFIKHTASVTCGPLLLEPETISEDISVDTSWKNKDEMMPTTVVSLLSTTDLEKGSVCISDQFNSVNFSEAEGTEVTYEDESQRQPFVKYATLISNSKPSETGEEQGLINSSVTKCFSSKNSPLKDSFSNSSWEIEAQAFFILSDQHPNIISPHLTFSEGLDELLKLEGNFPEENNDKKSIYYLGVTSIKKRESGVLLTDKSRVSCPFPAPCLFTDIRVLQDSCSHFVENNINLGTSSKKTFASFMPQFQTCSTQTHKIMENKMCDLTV
# [7] = target: wild-type human GP130 on HEK293.STAT3.Luc.GP130 reporter cells (human) (UniProt P40189); experiment: cell-based or functional assay
# wild-type human GP130 on HEK293.STAT3.Luc.GP130 reporter cells (human), sequence (P40189 23-918): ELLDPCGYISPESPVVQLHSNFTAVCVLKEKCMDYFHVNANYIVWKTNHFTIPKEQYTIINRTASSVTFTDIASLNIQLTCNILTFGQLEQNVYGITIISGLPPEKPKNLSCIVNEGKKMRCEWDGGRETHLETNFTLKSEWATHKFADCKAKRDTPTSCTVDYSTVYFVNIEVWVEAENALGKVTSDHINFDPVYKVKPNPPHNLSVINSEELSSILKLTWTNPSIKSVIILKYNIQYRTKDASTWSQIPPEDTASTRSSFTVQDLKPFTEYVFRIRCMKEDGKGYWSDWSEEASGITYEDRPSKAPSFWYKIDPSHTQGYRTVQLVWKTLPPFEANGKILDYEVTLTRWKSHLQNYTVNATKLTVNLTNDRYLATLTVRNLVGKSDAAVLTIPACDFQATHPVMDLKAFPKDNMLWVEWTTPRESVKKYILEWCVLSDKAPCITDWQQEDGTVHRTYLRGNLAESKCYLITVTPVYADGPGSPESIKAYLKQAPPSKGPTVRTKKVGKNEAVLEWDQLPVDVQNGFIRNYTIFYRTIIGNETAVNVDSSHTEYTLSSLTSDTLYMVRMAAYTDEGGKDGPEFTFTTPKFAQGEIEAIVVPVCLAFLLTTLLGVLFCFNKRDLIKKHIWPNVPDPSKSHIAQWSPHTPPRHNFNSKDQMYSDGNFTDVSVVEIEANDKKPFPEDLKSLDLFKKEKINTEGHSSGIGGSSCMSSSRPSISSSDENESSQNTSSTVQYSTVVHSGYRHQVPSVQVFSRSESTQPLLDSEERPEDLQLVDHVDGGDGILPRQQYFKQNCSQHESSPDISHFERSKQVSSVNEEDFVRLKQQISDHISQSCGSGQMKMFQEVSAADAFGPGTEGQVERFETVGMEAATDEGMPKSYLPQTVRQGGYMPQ
# [8] = target: extracellular domain of human LEPR, GPI-anchored, on HEK293/hLEPR-GPI cells (human) (UniProt P48357); experiment: FACS, 200 nM antibody on HEK293/hLEPR-GPI cells, 1 µM Leptin
# [9] = target: gp130 expressed endogenously on IMR-32/STAT3-Luc cells (human) (UniProt P40189); experiment: cell-based or functional assay
# gp130 expressed endogenously on IMR-32/STAT3-Luc cells (human), sequence (P40189 23-918): as above
# extracellular domain of human LEPR, GPI-anchored, on HEK293/hLEPR-GPI cells (human), sequence (P48357 22-839 limits assumed): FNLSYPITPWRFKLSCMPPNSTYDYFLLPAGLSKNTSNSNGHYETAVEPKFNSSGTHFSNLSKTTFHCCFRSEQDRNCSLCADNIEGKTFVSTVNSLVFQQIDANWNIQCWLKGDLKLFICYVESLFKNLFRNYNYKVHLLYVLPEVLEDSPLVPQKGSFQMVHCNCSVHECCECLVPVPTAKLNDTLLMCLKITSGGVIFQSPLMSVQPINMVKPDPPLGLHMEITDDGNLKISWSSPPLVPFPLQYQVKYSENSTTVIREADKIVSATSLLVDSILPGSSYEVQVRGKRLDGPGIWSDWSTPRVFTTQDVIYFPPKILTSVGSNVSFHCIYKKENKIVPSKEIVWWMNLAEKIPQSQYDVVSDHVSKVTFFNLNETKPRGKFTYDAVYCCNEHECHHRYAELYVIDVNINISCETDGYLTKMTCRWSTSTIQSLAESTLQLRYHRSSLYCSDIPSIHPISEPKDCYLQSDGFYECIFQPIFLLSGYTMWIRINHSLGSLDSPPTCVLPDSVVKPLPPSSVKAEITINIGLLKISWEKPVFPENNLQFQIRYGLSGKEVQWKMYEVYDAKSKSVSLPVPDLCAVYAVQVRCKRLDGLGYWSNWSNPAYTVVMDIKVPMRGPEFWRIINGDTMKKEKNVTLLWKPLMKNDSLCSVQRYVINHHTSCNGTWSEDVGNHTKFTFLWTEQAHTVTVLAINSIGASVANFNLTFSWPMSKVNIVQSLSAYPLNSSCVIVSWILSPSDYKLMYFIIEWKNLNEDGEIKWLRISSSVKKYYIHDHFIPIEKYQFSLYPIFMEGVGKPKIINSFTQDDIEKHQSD
substance,measurement,setting,value
"Alexa Fluor-647 conjugated secondary antibody (Jackson ImmunoResearch Laboratories Inc., #109-607-003)","Binding Ratio, normalized to unstained sample (FL4-A)",[1],2 fold
same,"Binding Ratio, normalized to unstained sample (FL4-A)",[2],1 fold
same,"Binding Ratio, normalized to unstained sample (FL4-A)",[3],3 fold
Isotype Control (antibody),"Binding Ratio, normalized to unstained sample (FL4-A)",[4],3 fold
same,"Binding Ratio, normalized to unstained sample (FL4-A)",[5],2 fold
same,"Assay Buffer, % activity",[6],0%
same,"RLU, Assay Buffer (no soluble protein)",[6],12200 RLU and 12100 RLU
same,"Assay Buffer, % activity",[7],0%
same,"RLU, Assay Buffer (no soluble protein)",[7],12200 RLU and 12100 RLU
same,"Binding Ratio, normalized to unstained sample (FL4-A)",[8],3 fold
human Oncostatin M (from UniProt P13725 26-221) (ligand),EC50 of activation of IMR-32/STAT3-luc cells (STAT3-luciferase),[9],0.054 nM
"human OSM (R&D Systems, #295-OM/CF) (from UniProt P13725 26-221) (ligand)","EC50 (M), STAT3-luciferase activation of HEK293.STAT3.Luc.GP130.hLEPR (Y1141F) cells",[7],5.92e-10 M
same,"EC50 (M), STAT3-luciferase activation of HEK293.STAT3.Luc.GP130.hLEPR (a) cells",[7],1.21e-10 M
same,Percentage activation as compared to hOSM,[7],100%
same,Percentage maximum activation as compared to hOSM,[7],100%
